This assay deals with T1, recombinant Phi29 polymerase-SpyTag fusion protein (Bacillus phage phi29 (Bacteriophage …, UniProt P03680 2-575)).
T1 construct: Expressed in E. coli with an amino terminal polyhistidine/SUMO tag (N-His/SUMO); The tag was cleaved with ULP1; also called N-His/SUMO Phi29 polymerase-SpyTag fusion protein; Phi29 with K-linker-SpyTag003
T1 sequence: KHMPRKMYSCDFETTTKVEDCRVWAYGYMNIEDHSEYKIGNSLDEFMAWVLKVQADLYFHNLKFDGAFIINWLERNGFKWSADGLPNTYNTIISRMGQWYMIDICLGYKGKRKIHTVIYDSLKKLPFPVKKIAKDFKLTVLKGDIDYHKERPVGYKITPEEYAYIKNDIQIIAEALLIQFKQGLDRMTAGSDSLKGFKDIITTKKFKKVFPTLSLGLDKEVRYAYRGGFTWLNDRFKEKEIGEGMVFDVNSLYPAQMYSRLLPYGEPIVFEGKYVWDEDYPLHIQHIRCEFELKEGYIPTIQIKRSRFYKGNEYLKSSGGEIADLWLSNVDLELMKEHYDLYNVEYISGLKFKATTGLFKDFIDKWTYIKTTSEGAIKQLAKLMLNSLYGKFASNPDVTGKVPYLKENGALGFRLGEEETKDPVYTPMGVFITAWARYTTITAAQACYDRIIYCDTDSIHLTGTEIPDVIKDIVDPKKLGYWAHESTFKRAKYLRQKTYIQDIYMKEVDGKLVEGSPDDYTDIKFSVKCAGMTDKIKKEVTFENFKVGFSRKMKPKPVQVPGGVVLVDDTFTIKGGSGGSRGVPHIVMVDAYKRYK
The assay can be described thus: co-expression in E. coli, nickel purification, SDS-PAGE (covalent SpyCatcher:SpyTag coupling). An excerpt: N-His/SUMO recombinant Phi29 polymerase-SpyCatcher fusion protein and recombinant Phi29 polymerase-SpyTag fusion protein were expressed as described in Example 3. The soluble fraction was collected and run on a nickel column. The SDS-PAGE for the various fractions are shown in FIG. 9A (SpyCatcher) and FIG. 9B (SpyTag). The SUMO tag was cleaved using a recombinant Ubl-specific protease 1 (ULP1). Fractions were collected for pre- and post-cleavage of the N-His/SUMO tag, as shown in FIG. 10A (SpyCatcher) and FIG. 10B (SpyTag). Each elution fraction was collected as 1 mL aliquots using an 80-100% gradient of 1 M NaCl.
When the Phi29 polymerase-SpyCatcher fusion protein, the Phi29 polymerase-SpyTag fusion protein were co-expressed in E. coli, a dimer of fusion proteins (e.g., a dimer of Phi29 polymerase-SpyCatcher:Phi29 polymerase-SpyTag; comprising two Phi29 polymerase domains), with an approximate molecular weight of 147.974 kDa, was generated based on the protein coupling between SpyCatcher:SpyTag. (FIG. 10C, lane 3).

B1: recombinant Phi29 polymerase-SpyCatcher fusion protein (enzyme)
chain: KHMPRKMYSCDFETTTKVEDCRVWAYGYMNIEDHSEYKIGNSLDEFMAWVLKVQADLYFHNLKFDGAFIINWLERNGFKWSADGLPNTYNTIISRMGQWYMIDICLGYKGKRKIHTVIYDSLKKLPFPVKKIAKDFKLTVLKGDIDYHKERPVGYKITPEEYAYIKNDIQIIAEALLIQFKQGLDRMTAGSDSLKGFKDIITTKKFKKVFPTLSLGLDKEVRYAYRGGFTWLNDRFKEKEIGEGMVFDVNSLYPAQMYSRLLPYGEPIVFEGKYVWDEDYPLHIQHIRCEFELKEGYIPTIQIKRSRFYKGNEYLKSSGGEIADLWLSNVDLELMKEHYDLYNVEYISGLKFKATTGLFKDFIDKWTYIKTTSEGAIKQLAKLMLNSLYGKFASNPDVTGKVPYLKENGALGFRLGEEETKDPVYTPMGVFITAWARYTTITAAQACYDRIIYCDTDSIHLTGTEIPDVIKDIVDPKKLGYWAHESTFKRAKYLRQKTYIQDIYMKEVDGKLVEGSPDDYTDIKFSVKCAGMTDKIKKEVTFENFKVGFSRKMKPKPVQVPGGVVLVDDTFTIKGGSGGSVTTLSGLSGEQGPSGDMTTEEDSATHIKFSKRDEDGRELAGATMELRDSSGKTISTWISDGHVKDFYLYPGKYTFVETAAPDGYEVATPIEFTVNEDGQVTVDGEATEGDAHT
notes: Expressed in E. coli with an amino terminal polyhistidine/SUMO tag (N-His/SUMO); The tag was cleaved with ULP1; also called N-His/SUMO Phi29 polymerase-SpyCatcher fusion protein; Phi29 with K-linker-SpyCatcher003
Turning to B1, the binding result was “binds”.

These data come from US20240209330A1 (10X GENOMICS, published 2024).
